For data set [1], the target named is MtHPt1 (histidine-containing phosphotransfer protein 1 of Medicago truncatula) with N-terminal His6-MBP fusion (Medicago truncatula). The data set is described as follows: BLI; His6-MBP-MtHPt1 (104 nM) immobilised on Ni-NTA sensors; MtCRE1-IC at 2.5, 5, 10, 20 nM; SEC buffer (25 mM HEPES pH 7.5, 50 mM NaCl, 100 mM KCl, 1 mM TCEP) with 10% Kinetic Buffer, with 0.5 mM ATP and 2 mM MgCl2; 25°C; global 1:1 fit. A general note: In BLI a coated tip is dipped into the sample, and binding shifts an interference pattern.

For data set [2] the target is unchanged. The data set is described as above. The source holds these as a separate data set.
Data set [3] concerns the molecule itself. The data set is described as follows: crystal structure; MtCRE1-REC-Ca, 2.5 Å, space group P3(1)21, one subunit in the asymmetric unit, dimer by a crystallographic twofold; Ca2+ bound.
Data set [4] concerns the molecule itself. The data set is described as follows: native gel or EMSA; Native-PAGE of AtCRE1-REC compared with monomeric PR-10 proteins of similar calculated pI.
Data set [5] deals with the molecule itself. The data set is described as follows: crystal structure; AtCRE1-REC-K, 2.15 Å, space group P2(1)2(1)2, two subunits in the asymmetric unit; K+ bound.

Read-outs that look alike come from different tables or passages of the source.

Chain of MtHPt1 (histidine-containing phosphotransfer protein 1 of Medicago truncatula) with N-terminal His6-MBP fusion (Medicago truncatula) (main, as listed by the source): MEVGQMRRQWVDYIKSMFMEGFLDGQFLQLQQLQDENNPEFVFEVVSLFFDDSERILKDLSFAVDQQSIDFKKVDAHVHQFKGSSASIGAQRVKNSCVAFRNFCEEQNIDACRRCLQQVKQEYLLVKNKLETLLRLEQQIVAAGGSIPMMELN

One may read the Kd as the constant that tells how readily two partners part at equilibrium. Take “MtCRE1-IC (intracellular domain of Medicago truncatula CRE1, Ile352-Ser1003) (from UniProt G7LCC3 352-1003) (domain or fragment)”: the dissociation constant (Kd) was 12 to 54 nM in data set [1] and 12 nM in data set [2].

B1: MtCRE1-REC (receiver domain of cytokinin receptor CRE1 from Medicago truncatula) (domain or fragment, UniProt G7LCC3 856-994, looked up)
chain: SLLFGKKILVVDDNVVNRRVAAGALKNFGADVKCADSGKAALEMLQFPHKFDACFMDIQMPEMDGFEATRRIREMERTANEETNSECGERKSEFHLPILAMTADVIHATYEECLKCGMDGYVSKPFEEENLYQAVAKFF
notes: Made by proteolysis, not cloned as a domain; residues 936-948 are missing in the map; also called MtCRE1-REC-Ca; source: recombinant MtCRE1-IC from E. coli, limited proteolysis with thermolysin, purified (Superdex 75)
With B1, in data set [3], the binding result is on record as “binds”.

B2: AtCRE1-REC, complete receiver domain Leu918-Ser1057 (Arabidopsis thaliana CRE1/AHK4) (domain or fragment)
chain: SNALLTGKKILVVDDNIVNRRVAAGALKKFGAEVVCAESGQVALGLLQIPHTFDACFMDIQMPQMDGFEATRQIRMMEKETKEKTNLEWHLPILAMTADVIHATYEECLKSGMDGYVSKPFEEENLYKSVAKSFKPNPISPSS
notes: Ser-Asn-Ala cloning artifact at the N-terminus (vector pMCSG68); AHK4/CRE1/WOL, Arabidopsis thaliana, receiver domain Leu918-Ser1057; numbers count on: UniProt Q9C5U0-2; also called AtCRE1-REC-Mg; source: E. coli BL21 Gold, purified (Ni-NTA, TEV, Superdex75)
One may read the stoichiometry N as a count of units in the complex or per binding partner. Regarding B2, in data set [4], the “stoichiometry N” value was 2.

B3: AtCRE1-REC, C-terminally truncated receiver domain Leu918-Phe1048 (Arabidopsis thaliana CRE1/AHK4) (domain or fragment)
chain: SNALLTGKKILVVDDNIVNRRVAAGALKKFGAEVVCAESGQVALGLLQIPHTFDACFMDIQMPQMDGFEATRQIRMMEKETKEKTNLEWHLPILAMTADVIHATYEECLKSGMDGYVSKPFEEENLYKSVAKSF
notes: cloning linker at the N-terminus (vector pMCSG68); Ser-Asn-Ala is printed for the longer construct from the same vector, Asn916-Ala917 of the linker are named for this one; AHK4/CRE1/WOL, Arabidopsis thaliana, receiver domain with a 9-residue C-terminal truncation, Leu918-Phe1048; numbers count on: UniProt Q9C5U0-2; also called AtCRE1-REC-K; source: Magic E. coli strain, purified (Ni-NTA, TEV, …)
In the case of B3, the binding result in data set [5] is recorded as “binds”.
